Source: publication PMC10311867 (Biotechnology for Biofuels and Bioproducts, 2023)

T1: AmRha (Aspergillus mulundensis, UniProt A0A3D8R006)
T1 construct: gene DSM5745_09107; full-length synthetic gene (2589 bp, 862 aa); native-like purification (ammonium sulphate, DEAE)
T1 sequence (A0A3D8R006 1-862): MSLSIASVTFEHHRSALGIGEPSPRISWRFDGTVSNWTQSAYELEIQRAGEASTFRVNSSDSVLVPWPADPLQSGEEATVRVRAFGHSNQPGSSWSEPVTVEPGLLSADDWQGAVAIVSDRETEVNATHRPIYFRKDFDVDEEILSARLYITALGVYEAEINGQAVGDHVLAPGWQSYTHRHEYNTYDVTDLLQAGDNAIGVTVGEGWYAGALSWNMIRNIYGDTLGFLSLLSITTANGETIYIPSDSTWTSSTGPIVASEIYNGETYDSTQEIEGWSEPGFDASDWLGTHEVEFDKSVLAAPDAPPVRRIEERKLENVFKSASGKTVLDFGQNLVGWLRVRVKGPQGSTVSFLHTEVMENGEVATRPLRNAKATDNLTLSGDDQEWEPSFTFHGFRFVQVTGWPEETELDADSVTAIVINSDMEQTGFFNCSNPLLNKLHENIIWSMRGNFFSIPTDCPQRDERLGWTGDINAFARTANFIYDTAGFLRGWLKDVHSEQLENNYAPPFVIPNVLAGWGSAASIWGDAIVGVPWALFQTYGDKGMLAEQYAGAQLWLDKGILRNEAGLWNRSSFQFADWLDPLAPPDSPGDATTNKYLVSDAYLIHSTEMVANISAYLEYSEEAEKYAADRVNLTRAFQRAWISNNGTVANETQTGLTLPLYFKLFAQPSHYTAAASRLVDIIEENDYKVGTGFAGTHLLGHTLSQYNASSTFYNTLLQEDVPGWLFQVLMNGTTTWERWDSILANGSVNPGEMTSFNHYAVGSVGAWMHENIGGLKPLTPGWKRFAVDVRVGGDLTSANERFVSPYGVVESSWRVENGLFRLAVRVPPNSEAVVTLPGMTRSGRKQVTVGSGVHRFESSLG

B1: AmRha (Aspergillus mulundensis) (protein)
chain: T1 sequence (A0A3D8R006 1-862)
notes: full-length synthetic gene (2589 bp, 862 aa); native-like purification (ammonium sulphate, DEAE)

Key:
[1] = biological target: T1, AmRha; assay: residual activity on pNPR, […] nm; type: biochemical; conditions: read-out: remaining enzyme activity at 5 mM
[2] = substrate: COc1ccc(-c2oc3c(CC=C(C)C)c(O[C@@H]4O[C@H](CO)[C@@H](O)[C@H](O)[C@H]4O)cc(O)c3c(=O)c2O[C@@H]2O[C@@H](C)[C@H](O)[C@@H](O)[C@H]2O[C@@H]2O[C@@H](C)[C@H](O)[C@@H](O)[C@H]2O)cc1; assay: purified protein; conditions: hydrolysis of terminal alpha-1,2-rhamnose to icariin; kinetic conditions not stated
[3] = substrate: C[C@@H]1O[C@@H](Oc2ccc([N+](=O)[O-])cc2)[C@H](O)[C@H](O)[C@H]1O; assay: purified protein; type: biochemical, Aspergillus mulundensis; conditions: pH 5.5, 65 °C, 50 mM sodium phosphate

Molecule | remaining activity at 5000 µM [1] | Km [2] | kcat [2] | Km [3] | kcat [3]
C[C@@H]1OC(O)[C@H](O)[C@H](O)[C@H]1O (stereo partly drawn) [L-rhamnose] | 49.7% | – | – | – | –
B1 | – | 6.96 mM | 37.11 s⁻¹ | 0.30 mM | 900.34 s⁻¹
